Tests used:
[1] = molecular target: TAU-412 target protein (human) (UniProt P10636); experiment: sandwich Immuno Q-Amp assay: capture MN1010, TAU-412 10 ng per well, biotin MN1000 reporter, avidin-biotin-MNVplus template, Q-beta replicase, SYBR Green fluorescence; Superblock blocking
[2] = molecular target: TAU-412 target protein (human) (UniProt P10636); experiment: sandwich Immuno Q-Amp assay: capture MN1010, TAU-412 10 ng per well, biotin MN1000 reporter, avidin-biotin-MNVplus template, Q-beta replicase, SYBR Green fluorescence; Startingblock blocking

Sequence of UniProt P10636 (P10636 other isoform, or with tags, fused parts or gaps): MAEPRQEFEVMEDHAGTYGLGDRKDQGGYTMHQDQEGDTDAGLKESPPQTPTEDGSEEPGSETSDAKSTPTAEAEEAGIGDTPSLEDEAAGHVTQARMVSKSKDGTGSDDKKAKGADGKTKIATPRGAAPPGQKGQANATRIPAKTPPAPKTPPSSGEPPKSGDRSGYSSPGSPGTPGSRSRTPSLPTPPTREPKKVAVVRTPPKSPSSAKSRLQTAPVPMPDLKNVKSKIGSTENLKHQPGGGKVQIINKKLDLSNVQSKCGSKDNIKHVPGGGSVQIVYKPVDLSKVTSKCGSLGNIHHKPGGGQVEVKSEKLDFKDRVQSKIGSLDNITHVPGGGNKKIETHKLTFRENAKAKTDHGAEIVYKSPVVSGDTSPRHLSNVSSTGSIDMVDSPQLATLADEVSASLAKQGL

RT (response time, Superblock blocking) [1]: 15 min
RT (response time, starting block blocking) [2]: 13.5 min
Substance: anti-TAU, biotinylated antibody MN-1000 (Pierce, #MN1000B)

From US20060199194A1
